In US20160347802A1 (MAX PLANCK GESELLSCHAFT ZUR FOERDERUNG DER WISSENSCHAFTEN E …, published 2016):

T1: human Netrin-4, AVEXIS protein (human, UniProt Q9HB63 19-628)
T1 construct: not shown: AVEXIS tag (bait or prey)
T1 sequence (looked up): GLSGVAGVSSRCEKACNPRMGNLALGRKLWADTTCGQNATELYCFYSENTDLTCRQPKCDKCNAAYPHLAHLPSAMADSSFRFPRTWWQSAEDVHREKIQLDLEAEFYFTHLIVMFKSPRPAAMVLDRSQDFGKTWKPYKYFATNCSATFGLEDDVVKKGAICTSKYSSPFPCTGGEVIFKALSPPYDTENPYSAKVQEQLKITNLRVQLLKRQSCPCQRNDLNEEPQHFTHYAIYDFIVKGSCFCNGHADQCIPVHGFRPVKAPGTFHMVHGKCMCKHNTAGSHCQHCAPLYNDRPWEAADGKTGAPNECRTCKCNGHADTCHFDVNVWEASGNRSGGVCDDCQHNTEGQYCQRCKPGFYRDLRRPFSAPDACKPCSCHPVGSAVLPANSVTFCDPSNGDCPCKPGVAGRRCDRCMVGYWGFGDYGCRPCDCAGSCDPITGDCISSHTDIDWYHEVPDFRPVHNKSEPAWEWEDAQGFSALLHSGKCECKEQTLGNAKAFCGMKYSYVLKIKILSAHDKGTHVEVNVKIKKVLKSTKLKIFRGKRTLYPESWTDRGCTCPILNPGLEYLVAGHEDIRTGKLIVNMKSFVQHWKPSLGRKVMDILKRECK

T2: human Netrin-G1, AVEXIS protein (human, UniProt Q9Y2I2 29-510)
T2 construct: not shown: AVEXIS tag (bait or prey)
T2 sequence (looked up): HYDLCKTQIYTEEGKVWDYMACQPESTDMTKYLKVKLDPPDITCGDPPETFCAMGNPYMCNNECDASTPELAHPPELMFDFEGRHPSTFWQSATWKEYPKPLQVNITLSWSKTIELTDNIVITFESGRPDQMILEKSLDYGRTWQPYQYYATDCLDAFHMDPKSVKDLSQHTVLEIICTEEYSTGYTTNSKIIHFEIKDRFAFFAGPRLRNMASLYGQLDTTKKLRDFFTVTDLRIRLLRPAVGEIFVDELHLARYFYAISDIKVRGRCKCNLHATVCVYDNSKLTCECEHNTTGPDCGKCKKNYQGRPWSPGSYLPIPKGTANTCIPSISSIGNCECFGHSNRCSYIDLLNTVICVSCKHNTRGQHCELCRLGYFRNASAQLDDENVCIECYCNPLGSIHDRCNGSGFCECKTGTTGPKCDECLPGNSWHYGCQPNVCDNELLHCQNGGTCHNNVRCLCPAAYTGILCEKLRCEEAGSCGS

T3: human Netrin-G2, AVEXIS protein (human, UniProt Q96CW9 18-507)
T3 construct: not shown: AVEXIS tag (bait or prey)
T3 sequence (looked up): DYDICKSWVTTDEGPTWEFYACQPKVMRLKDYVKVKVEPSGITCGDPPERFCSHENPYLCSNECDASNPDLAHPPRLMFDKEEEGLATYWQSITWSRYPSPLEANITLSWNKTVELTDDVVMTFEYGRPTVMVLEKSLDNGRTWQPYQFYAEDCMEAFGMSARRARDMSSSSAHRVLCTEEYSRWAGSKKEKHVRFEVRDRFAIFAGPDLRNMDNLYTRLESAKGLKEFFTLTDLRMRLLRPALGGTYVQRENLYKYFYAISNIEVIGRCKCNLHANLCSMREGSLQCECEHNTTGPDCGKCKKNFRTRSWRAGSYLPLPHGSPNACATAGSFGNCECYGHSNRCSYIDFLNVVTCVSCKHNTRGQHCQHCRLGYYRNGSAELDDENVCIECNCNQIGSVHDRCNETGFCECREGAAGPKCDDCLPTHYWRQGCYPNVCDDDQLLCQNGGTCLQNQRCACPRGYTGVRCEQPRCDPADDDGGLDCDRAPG

T4: human DRAXIN 21 amino acid Netrin binding fragment, AVEXIS prey or bait protein (human)
T4 construct: Tested in both bait and prey orientations; also called human 21 amino acid DRAXIN fragment; derived 21 amino acid peptide; not shown: AVEXIS tag (rat Cd4d3+4 and prey or bait module)
T4 peptide: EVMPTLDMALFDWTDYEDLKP

T5: zebrafish DraxinB, AVEXIS protein (zebrafish)
T5 chain: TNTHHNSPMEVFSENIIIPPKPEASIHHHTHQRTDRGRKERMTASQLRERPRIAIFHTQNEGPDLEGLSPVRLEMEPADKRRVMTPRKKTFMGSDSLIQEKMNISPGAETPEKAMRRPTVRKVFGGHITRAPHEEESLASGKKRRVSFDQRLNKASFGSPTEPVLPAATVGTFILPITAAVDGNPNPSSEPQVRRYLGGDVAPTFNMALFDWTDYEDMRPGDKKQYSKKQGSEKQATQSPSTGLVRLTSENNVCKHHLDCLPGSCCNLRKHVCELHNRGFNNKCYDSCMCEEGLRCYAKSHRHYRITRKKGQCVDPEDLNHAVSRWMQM

B1: human DRAXIN, AVEXIS prey or bait protein (ligand)
chain: GALAPGTPARNLPENHIDLPGPALWTPQASHHRRRGPGKKEWGPGLPSQAQDGAVVTATRQASRLPEAEGLLPEQSPAGLLQDKDLLLGLALPYPEKENRPPGWERTRKRSREHKRRRDRLRLHQGRALVRGPSSLMKKAELSEAQVLDAAMEESSTSLAPTMFFLTTFEAAPATEESLILPVTSLRPQQAQPRSDGEVMPTLDMALFDWTDYEDLKPDGWPSAKKKEKHRGKLSSDGNETSPAEGEPCDHHQDCLPGTCCDLREHLCTPHNRGLNNKCFDDCMCVEGLRCYAKFHRNRRVTRRKGRCVEPETANGDQGSFINV
notes: It was tested in both bait and prey orientations
B2: zebrafish DraxinA, AVEXIS prey or bait protein (ligand)
chain: SEISSDNFKQSLTPSTTTSKEHPETGLTGGRQQKRHWSGKERDSAGLFSQRHMDRLEDDGTSMEGLSPVRLEMGPGDTMKAEVHGEVRASAQMRQGSHPAEGELNRKGRRHSHRLLAEHRKHGGKKDKGRGKGDLSDPEPELDSLLKDLNAFEDGLNTSPPNYNSVPLNEVPSPLSPILVTTAIKGHPPTLPPASTKPQKSSQGRTQGEVMPTLDMTLFDWTDYEDMKPADSWPSNKRKDKRRSKNKSNGNTTTEAGIVEPCDHHLDCLSGSCCDLREFECKPHNRGLNNKCFDDCMCEEGLRCYAKFHRKRRVTRRRGRCVDPESVNSNQGAFITV
notes: Prey and bait forms of the same protein are kept as one molecule; Preys are pentameric except in the monomeric-prey experiments; also called DraxinA prey protein

Assays:
[1] = target: T1, human Netrin-4, AVEXIS protein; assay: AVEXIS, prey NTN4 on bait DRAXIN
From the text: (§1) The Matn4-bait served as an internal prey-protein control and was used for normalization of the A486 nm values; conditioned medium (CM) serves as negative control; n=3.

[2] = target: T6, biotinylated recombinant human UNC5B (human, UniProt Q8IZJ1 27-377); assay: AVEXIS, prey DRAXIN on bait UNC5B
T6 construct: Made in HEK293-6E and immobilised on an SA chip
From the text: as §1

[3] = target: T2, human Netrin-G1, AVEXIS protein; assay: AVEXIS, prey NTNG1 on bait DRAXIN
From the text: as §1

[4] = target: T3, human Netrin-G2, AVEXIS protein; assay: AVEXIS, prey NTNG2 on bait DRAXIN
From the text: as §1

[5] = target: T7, human Netrin1, recombinant AVEXIS protein (biotinylated when immobilised) (human, UniProt O95631 25-604); assay: AVEXIS, prey on bait NTN1; dark = Binding
T7 construct: also called NTN1
From the text: as §1

[6] = target: T1, human Netrin-4, AVEXIS protein; assay: AVEXIS, prey on bait NTN4; white = No binding
From the text: as §1

[7] = target: T2, human Netrin-G1, AVEXIS protein; assay: AVEXIS, prey on bait NTNG1; white = No binding
From the text: as §1

[8] = target: T3, human Netrin-G2, AVEXIS protein; assay: AVEXIS, prey on bait NTNG2; white = No binding
From the text: as §1

[9] = target: T6, biotinylated recombinant human UNC5B; assay: AVEXIS, prey on bait UNC5B; white = No binding
From the text: as §1

[10] = target: T4, human DRAXIN 21 amino acid Netrin …; assay: AVEXIS, prey on bait DRAXIN 21aa; white = No binding
From the text: as §1

[11] = target: B2; assay: AVEXIS, prey on bait zDraxinA, lower value; white = No binding
[12] = target: B2; assay: AVEXIS, prey on bait zDraxinA, upper value; white = No binding
[13] = target: T5, zebrafish DraxinB, AVEXIS protein; assay: AVEXIS, prey on bait zDraxinB, lower value; white = No binding
[14] = target: T5, zebrafish DraxinB, AVEXIS protein; assay: AVEXIS, prey on bait zDraxinB, upper value; white = No binding
[15] = target: T8, Matn4 ECD, mono-biotinylated bait protein (positive control); assay: AVEXIS, prey on bait Matn4 (+), positive control for the prey; dark = Binding
T8 construct: extracellular domain; also called Matn4-bait
From the text: as §1

[16] = target: B1; assay: AVEXIS, pentameric prey human DRAXIN on bait zDraxinA
[17] = target: the molecule itself; assay: AVEXIS, pentameric prey zebrafish DraxinA on bait zDraxinA
[18] = target: T5, zebrafish DraxinB, AVEXIS protein; assay: AVEXIS, pentameric prey zebrafish DraxinA on bait zDraxinB
[19] = target: the molecule itself; assay: AVEXIS, prey on bait zDraxinA, lower value; white = No binding
[20] = target: the molecule itself; assay: AVEXIS, prey on bait zDraxinA, upper value; white = No binding

Binder | binding result [1] | binding result [2] | binding result [3] | binding result [4] | A486nm [5] | A486nm [6] | A486nm [7] | A486nm [8] | A486nm [9] | A486nm [10] | A486nm [11] | A486nm [12] | A486nm [13] | A486nm [14] | A486nm [15] | binding result [16] | binding result [17] | binding result [18] | A486nm [19] | A486nm [20]
B1 | no binding | no binding | no binding | no binding | 0.361 | 0.076 | 0.077 | 0.072 | 0.078 | 0.063 | 0.06 | 0.06 | 0.058 | 0.056 | 0.213 |  |  |  |  | 
B2 |  |  |  |  |  |  |  |  |  |  |  |  | 0.059 | 0.057 |  | no binding | no binding | no binding | 0.06 | 0.062
